Experimental data from article PMC5679609 (PLoS ONE, 2017).

Molecular target: T1, Tiam1 (human (endogenous in MCF-7), UniProt Q13009 1-1591)
T1 construct: also called Rac1-GEF; source: endogenous, MCF-7 lysate
Test: co-IP; anti-Tiam1 antibody, lysates of nt MCF-7 and of the lines that stably express the SDC4 constructs; Mg2+-lysis buffer (25 mM HEPES pH 7.5, 150 mM NaCl, 1% Igepal CA-630, 5 mM MgCl2, 1 mM EDTA, 2% glycerol); blot with anti-GFP-HRP or anti-Rac1
Conditions: partners not purified

T1 sequence (Q13009 whole entry): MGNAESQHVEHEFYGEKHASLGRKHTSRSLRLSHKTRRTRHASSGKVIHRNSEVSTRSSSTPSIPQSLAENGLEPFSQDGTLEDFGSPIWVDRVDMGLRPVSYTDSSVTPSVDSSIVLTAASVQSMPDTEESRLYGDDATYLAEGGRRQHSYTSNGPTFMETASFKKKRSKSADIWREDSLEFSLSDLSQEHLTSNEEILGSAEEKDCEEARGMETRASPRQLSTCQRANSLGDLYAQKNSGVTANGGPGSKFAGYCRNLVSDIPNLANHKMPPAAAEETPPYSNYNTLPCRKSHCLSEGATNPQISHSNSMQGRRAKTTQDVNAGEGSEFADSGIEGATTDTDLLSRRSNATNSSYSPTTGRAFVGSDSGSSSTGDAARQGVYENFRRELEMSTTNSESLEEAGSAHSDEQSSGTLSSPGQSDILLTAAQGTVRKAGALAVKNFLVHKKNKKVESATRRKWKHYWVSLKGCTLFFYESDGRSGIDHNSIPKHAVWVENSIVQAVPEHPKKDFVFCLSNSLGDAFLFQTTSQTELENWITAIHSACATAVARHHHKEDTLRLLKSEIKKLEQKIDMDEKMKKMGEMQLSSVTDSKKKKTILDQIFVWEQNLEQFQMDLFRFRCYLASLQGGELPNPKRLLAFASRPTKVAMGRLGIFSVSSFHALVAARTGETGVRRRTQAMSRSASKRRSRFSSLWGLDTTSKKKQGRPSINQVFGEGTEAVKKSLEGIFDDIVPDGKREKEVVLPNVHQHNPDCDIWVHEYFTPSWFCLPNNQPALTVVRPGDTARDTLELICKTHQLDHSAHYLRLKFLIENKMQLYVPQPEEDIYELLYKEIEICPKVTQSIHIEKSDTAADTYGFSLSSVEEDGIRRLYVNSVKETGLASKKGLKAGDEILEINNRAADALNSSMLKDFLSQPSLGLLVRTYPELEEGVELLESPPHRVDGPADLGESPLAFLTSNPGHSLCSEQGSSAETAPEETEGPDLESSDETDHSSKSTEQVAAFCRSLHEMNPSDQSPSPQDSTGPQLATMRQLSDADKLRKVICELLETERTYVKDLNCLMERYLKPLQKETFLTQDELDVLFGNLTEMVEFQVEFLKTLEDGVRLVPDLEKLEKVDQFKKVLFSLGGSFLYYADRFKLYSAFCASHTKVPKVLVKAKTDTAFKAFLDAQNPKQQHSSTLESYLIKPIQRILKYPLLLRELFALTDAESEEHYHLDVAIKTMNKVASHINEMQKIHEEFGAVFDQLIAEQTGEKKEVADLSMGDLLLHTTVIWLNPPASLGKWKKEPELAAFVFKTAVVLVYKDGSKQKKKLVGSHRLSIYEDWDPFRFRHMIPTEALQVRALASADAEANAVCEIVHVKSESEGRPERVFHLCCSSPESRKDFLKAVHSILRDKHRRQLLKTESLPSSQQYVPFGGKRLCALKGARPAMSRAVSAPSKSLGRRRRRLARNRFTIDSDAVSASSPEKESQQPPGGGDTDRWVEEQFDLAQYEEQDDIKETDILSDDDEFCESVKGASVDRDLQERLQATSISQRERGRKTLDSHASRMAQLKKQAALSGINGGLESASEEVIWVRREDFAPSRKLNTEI

fold binding against the non-phosphorylated SDC4: ~10 fold
B1: Ser179Glu SDC4 (phosphomimetic), with GFP in the extracellular domain (natural protein, human, UniProt P31431 19-198, looked up)
chain: ESIRETEVIDPQDLLEGRYFSGALPDDEDVVGPGQESDDFELSGSGDLDDLEDSMIGPEVVHPLVPLDNHIPERAGSGSQVPTEPKKLEENEVIPKRISPVEESEDVSNKVSMSSTVQGSNIFERTEVLAALIVGGIVGILFAVFLILLLMYRMKKKDEGEYDLGKKPIYKKAPTNEFYA
notes: syndecan-4 (SDC4), human, GenBank CAG46871.1; GFP inserted into the extracellular domain at position 131; also called phosphomimetic SDC4; source: MCF-7, stably transfected, in lysate; not shown: GFP, internal (at position 131), kept
